B1: TGF-beta receptor type-1 (Mus musculus), Q64729 (parent)
chain: MEAAAAAPRRPQLLIVLVAAATLLPGAKALQCFCHLCTKDNFTCETDGLCFVSVTETTDKVIHNSMCIAEIDLIPRDRPFVCAPSSKTGAVTTTYCCNQDHCNKIELPTTGPFSEKQSAGLGPVELAAVIAGPVCFVCIALMLMVYICHNRTVIHHRVPNEEDPSLDRPFISEGTTLKDLIYDMTTSGSGSGLPLLVQRTIARTIVLQESIGKGRFGEVWRGKWRGEEVAVKIFSSREERSWFREAEIYQTVMLRHENILGFIAADNKDNGTWTQLWLVSDYHEHGSLFDYLNRYTVTVEGMIKLALSTASGLAHLHMEIVGTQGKPAIAHRDLKSKNILVKKNGTCCIADLGLAVRHDSATDTIDIAPNHRVGTKRYMAPEVLDDSINMKHFESFKRADIYAMGLVFWEIARRCSIGGIHEDYQLPYYDLVPSDPSVEEMRKVVCEQKLRPNIPNRWQSCEALRVMAKIMRECWYANGAARLTALRIKKTLSQLSQQEGIKM
partner: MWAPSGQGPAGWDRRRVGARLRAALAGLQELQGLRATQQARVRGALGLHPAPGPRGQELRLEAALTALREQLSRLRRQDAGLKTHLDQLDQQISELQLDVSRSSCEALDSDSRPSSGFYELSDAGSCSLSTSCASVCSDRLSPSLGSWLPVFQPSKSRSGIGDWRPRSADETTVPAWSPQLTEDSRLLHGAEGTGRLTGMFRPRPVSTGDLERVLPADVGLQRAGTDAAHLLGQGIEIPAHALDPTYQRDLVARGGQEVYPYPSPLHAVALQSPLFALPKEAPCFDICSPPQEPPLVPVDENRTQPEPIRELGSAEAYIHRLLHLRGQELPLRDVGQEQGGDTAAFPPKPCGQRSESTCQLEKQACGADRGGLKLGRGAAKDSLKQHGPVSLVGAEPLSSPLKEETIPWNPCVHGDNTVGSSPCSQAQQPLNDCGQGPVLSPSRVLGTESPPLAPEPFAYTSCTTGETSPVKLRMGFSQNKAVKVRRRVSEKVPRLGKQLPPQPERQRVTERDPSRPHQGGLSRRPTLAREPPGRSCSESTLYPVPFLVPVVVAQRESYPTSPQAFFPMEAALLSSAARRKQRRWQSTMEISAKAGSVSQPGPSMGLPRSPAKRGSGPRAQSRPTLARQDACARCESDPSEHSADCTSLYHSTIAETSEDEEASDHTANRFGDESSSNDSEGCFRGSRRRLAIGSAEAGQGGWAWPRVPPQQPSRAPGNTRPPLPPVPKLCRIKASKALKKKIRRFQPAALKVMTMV

Variants of: B1
Settings: with dact2_mouse Dact2, Q7TN08

Variant | effect of a mutation on the interaction
T204D | decreasing interaction

Source: IntAct's records for PubMed 21718540
